Values quoted from earlier work, collected in paper PMC10977282.

Target: DR5 (Homo sapiens) (UniProt O14763)

Kd: < 400 nM
Substance: OPG (from UniProt O00300)
